In patent US20250027068A1:
Substitutions are numbered along the chain they refer to.

B1: VRT-37 (Fc fusion)
chain: VTSVWTKGVTPPTNFTYGEDVLHAPYVANQGWYDITKTFNRKDNLLCGAATAGNMLHWWFDQNKEQIENYLKKHPEKQKINFKGEQLFDVKEAIDTKDSQLDSKLFEYFKEKAFPYLSTKHLGVFPDHVIDMFINGYRLSLTNHGPTPVKRGSKDKRGGIFDAVFTRGVQSKLLTNRHDFKEKTLKEISDLIKQELTEGKALGISHTYANVRINHVINLWGADFDAEGNLEAIYVTDSDTEASIGMKKYFVGVNKNGKVAISAKEIEEDNIGAQVLGLFTLSTGQDIWNQTNDKTHTCPPCPAPEAAGAPSVFLFPPKPKDTLMISRTPEVTCVVVDVSHEDPEVKFNWYVDGVEVHNAKTKPREEQQNSTYRVVSVLTVLHQDWLNGKEYKCKVSNKALKAPIEKTISKAKGQPREPQVYTLPPSRDELTKNQVSLTCLVKGFYPSDIAVEWESNGQPENNYKTTPPVLDSDGSFFLYSKLTVDKSRWQQGNVFSCSVMHEALHNHYTQKSLSLSPG
B2: VRT-40 (Fc fusion)
chain: TITSVWTKGVTPPTPEDFRYYNEDVLHAPYVANQGWYDITKTFDGKDNLLCGAATAGNMLHWWFDQNKEEIERYLKKHPEKQKIIFKNQELFDVKAAIDTKDSQTNSKLFNYFRDKAFPGLSARQLGVFPDLVLDMFINGYYLNLGKTQSTDVNRPYQDKDKRGGIFDAVFTRGVQTTLLTARHDLKNKGLNEISDLIKQELTEGKALALSHTYANVRINHVINLWGADFDAEGNLIAIYVTDSDTRASIGMKKYFVGVNANGKVAISAKKIEGDNIGAQVLGLFTLSTGQDIWQKLSDKTHTCPPCPAPEAAGAPSVFLFPPKPKDTLMISRTPEVTCVVVDVSHEDPEVKFNWYVDGVEVHNAKTKPREEQQNSTYRVVSVLTVLHQDWLNGKEYKCKVSNKALKAPIEKTISKAKGQPREPQVYTLPPSRDELTKNQVSLTCLVKGFYPSDIAVEWESNGQPENNYKTTPPVLDSDGSFFLYSKLTVDKSRWQQGNVFSCSVMHEALHNHYTQKSLSLSPG
B3: VRT-30 (Fc fusion)
chain: QITSVWTKGVTPPTPEQFRYNNEDVIHAPYLANQGWYDITKTFNGKDNLLCGAATAGNMLHWWFDQNKTEIEAYLSKHPEKQKIIFNNQELFDLKAAIDTKDSQTNSQLFNYFRDKAFPGLSARQLGVFPDLVLDMFINGYYLNVFKTQSTDVNRPYQDKDKRGGIFDAVFTRGVQTTLLTARHDLKNKTLNDISTLIKQELTEGKALALSHTYANVRISHVINLWGADFNAEGNLEAIYVTDSDANASIGMKKYFVGVNAHGKVAISAKKIEGENIGAQVLGLFTLSSGKDIWQKLSDKTHTCPPCPAPEAAGAPSVFLFPPKPKDTLMISRTPEVTCVVVDVSHEDPEVKFNWYVDGVEVHNAKTKPREEQQNSTYRVVSVLTVLHQDWLNGKEYKCKVSNKALKAPIEKTISKAKGQPREPQVYTLPPSRDELTKNQVSLTCLVKGFYPSDIAVEWESNGQPENNYKTTPPVLDSDGSFFLYSKLTVDKSRWQQGNVFSCSVMHEALHNHYTQKSLSLSPG
B4: VRT-32 (Fc fusion)
chain: B3 chain with I26F, L31T, N33H, N44D, Q108A, L197I, K206R, A246S, H262S
B5: VRT-31 (Fc fusion)
chain: B3 chain with P13L, S76K, T190G, D193E, A246S
B6: VRT-38 (Fc fusion)
chain: VTSVWTKGVTPPADFTQGEDVFHAPYVANQGWYDITKTFNRKDNLLCGAATAGNMLHWWFDQNKEYIEAYLKKHPEKQKIIFGDQELLDVRKAINTKGSQKNSELFNYFRDKAFPNLSARRLGVFPDLVLDMFINGYYLNVTKTQTTDVNRTYQEKDKRGGIFDAVFTRGVQSKLLTSRHDFKEKGLKEISDLIKQELTEGKALGLSHTYANVRINHVINLWGADFDSDGNLKAIYVTDSDTRASIGMKKYFVGVNAAGKVAISAKEIKEDNIGAQVLGLFTLSTGQDIWNQTNDKTHTCPPCPAPEAAGAPSVFLFPPKPKDTLMISRTPEVTCVVVDVSHEDPEVKFNWYVDGVEVHNAKTKPREEQQNSTYRVVSVLTVLHQDWLNGKEYKCKVSNKALKAPIEKTISKAKGQPREPQVYTLPPSRDELTKNQVSLTCLVKGFYPSDIAVEWESNGQPENNYKTTPPVLDSDGSFFLYSKLTVDKSRWQQGNVFSCSVMHEALHNHYTQKSLSLSPG
B7: VRT-33 (Fc fusion)
chain: SQTEDSESLQRLRDIEDFQAEKKKQNVVYTKWLDGVDVKDHDFRKIVDGNIAYYATPLLNGRGFYDINKDFNRDNDKCAAAVAANMFHYWLDRNRDNVDRFLRQNPEKHGIIELPDGQLKLSDFLNTYESDDGYRDKSKLFDFISNNFNGPVWTDKLLDNYINGYAYNYKYGRTIEDSTKNTSKINFFKEVFNEKILTNNHSIRNQNEFSVLLSEALYTGKAIGLSYGPAGLRHSLGHIISVWGADLDADGNVVAIYVTDSDDKKLTIGDERVGLKRYKISTDDEGRLRLTAYEETHNTGGQIRGLWTLDTGKQAWADYFDKTEQTGTDQAEQDKTHTCPPCPAPEAAGAPSVFLFPPKPKDTLMISRTPEVTCVVVDVSHEDPEVKFNWYVDGVEVHNAKTKPREEQQNSTYRVVSVLTVLHQDWLNGKEYKCKVSNKALKAPIEKTISKAKGQPREPQVYTLPPSRDELTKNQVSLTCLVKGFYPSDIAVEWESNGQPENNYKTTPPVLDSDGSFFLYSKLTVDKSRWQQGNVFSCSVMHEALHNHYTQKSLSLSPG
B8: VRT-34 (Fc fusion)
chain: B7 chain with R93I, D132H
B9: VRT-28 (Fc fusion)
chain: ITSVWTKGVTPPAKFTQGEDVFHAPYVANQGWYDITKTFNGKDNLLCGAATAGNMLHWWFDQNKEEIEAYLKKHPEKQKIIFGDQELLDVRKVINTKDSQTNSALFNYFKDKAFPNLSARRLGVFPDLVLDMFINGYYLNVYKTQTTDVNRTYQTKDRRGGIFDAVFTRGVQSKLLTERHDFKEKTLKEISDLIKQELTEGKALGLSHTYANVRINHVINLWGADFDSNGNLEAIYVTDSDTNASIGMKKYFVGVNSAGKVAISAKEIKEDNIGAQVLGLFTLSTGQDIWNQTNDKTHTCPPCPAPEAAGAPSVFLFPPKPKDTLMISRTPEVTCVVVDVSHEDPEVKFNWYVDGVEVHNAKTKPREEQQNSTYRVVSVLTVLHQDWLNGKEYKCKVSNKALKAPIEKTISKAKGQPREPQVYTLPPSRDELTKNQVSLTCLVKGFYPSDIAVEWESNGQPENNYKTTPPVLDSDGSFFLYSKLTVDKSRWQQGNVFSCSVMHEALHNHYTQKSLSLSPG
B10: VRT-39 (Fc fusion)
chain: B9 chain with G41R, N243R, S257A
B11: VRT-35 (Fc fusion)
chain: VTSVWTKGVTPPANFTQGEDVFHAPYKANQGWYDITKTFNRKDNLLCGAATAGNMLHWWFDQNKDQIEAYLKEHPEKQKINFKGEQLFDVKEAIDTKDDQTNSKLFEYFKEKAFPYLSTKHLGVFPDHVLDMFINGYRLSLTNHGPTPVKEGSKDKRGGIFDAVFTRGVQSKLLTSRHDFKEKTLKEISDLIKQELTEGKALALSHTYANVRINHVINLWGADFDSNGNLEAIYVTDSDTEASIGMKKYFVGVNKAGKVAISAKEIEDDNIGAQVLGLFTLSTGQDIWNQTNDKTHTCPPCPAPEAAGAPSVFLFPPKPKDTLMISRTPEVTCVVVDVSHEDPEVKFNWYVDGVEVHNAKTKPREEQQNSTYRVVSVLTVLHQDWLNGKEYKCKVSNKALKAPIEKTISKAKGQPREPQVYTLPPSRDELTKNQVSLTCLVKGFYPSDIAVEWESNGQPENNYKTTPPVLDSDGSFFLYSKLTVDKSRWQQGNVFSCSVMHEALHNHYTQKSLSLSPG
B12: VRT-36 (Fc fusion)
chain: B11 chain with K27V, A69R, D99S, N102D, A203G, N227E, E231K, E267K, D268E

target: pooled human IgG (human); test: cell-based or functional assay

Row | Binder | Enzyme Activity Endpoint Assay: Fab′2 [ng/µL] | Enzyme Activity Endpoint Assay: Fc [ng/µL] | Enzyme Activity Endpoint Assay: IgG [ng/µL] | Enzyme Activity Endpoint Assay: scIgG [ng/µL]
1 | B1 | 0 | 101 | 854 | 38
2 | B2 | 63 | 243 | 167 | 222
3 | B3 | 0 | 46 | 986 | 22
4 | B4 | 0 | 96 | 803 | 79
5 | B5 | 0 | 27 | 1020 | 21
6 | B6 | 0 | 27 | 990 | 20
7 | B7 | 0 | 5 | 1040 | 21
8 | B8 | 0 | 5 | 1020 | 20
9 | B9 | 0 | 3 | 987 | 22
10 | B10 | 0 | 27 | 1020 | 22
11 | B11 | 0 | 25 | 1020 | 22
12 | B12 | 0 | 112 | 1030 | 62
